# Data published in the supplement of paper PMC12042874.
# ± gives the uncertainty stated by the source.
# Experiment: amyloid nucleation score (Sup35N fusion, yeast selection) (log enrichment); library NNK2; higher = more nucleation; inactive = no reads after selection
# Summary of the method: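 The nucleation score is the log enrichment of output over input reads, calculated with DiMSum and centred on the mode score of non-aggregating sequences. Sequences with under 100 input reads were excluded. Reads came from Illumina sequencing of plasmid inserts from psi-negative yeast expressing Sup35N fused to peptides of 20 random codons, induced 24 hours with 100 μM copper sulfate and grown 7 days at 30°C without adenine and uracil.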
row,Substance,amyloid nucleation score
1,VKVVVNSSDNCVSIDWSYGR,2.14 ± 0.17
2,VKWISMCSILSYRRG,-1.08 ± 0.78
3,VKWTVHYNAVAKRIRLMIVY,0.437 ± 0.8
4,VLAAT,-0.815 ± 0.55
5,VLDINIFMISYCFHMHYDQV,5.49 ± 0.091
6,VLDSWRR,-0.963 ± 1.1
7,VLFCT,-1.29 ± 0.61
8,VLFNYKLITGSMFCTRHTRP,2.08 ± 0.11
9,VLFVTVPLSMVIMVSQT,-0.277 ± 1
10,VLGKFVEPGMAGLSVTPFRM,0.829 ± 0.57
11,VLGLSR,0.584 ± 0.51
12,VLGMYVFDRG,0.543 ± 0.46
13,VLGNSLELVGNRLDSI,4.11 ± 0.066
14,VLGVLQFVAFWNVVMWISPL,-0.659 ± 0.76
15,VLICFVSLRLKVGTLIPTTT,-0.37 ± 0.76
16,VLISSKYLIQSVDYILLNGP,-0.217 ± 0.29
17,VLKQLLFFS,4.357 ± 0.039
18,VLLGPSSYRLTYTMGRRRDG,0.685 ± 0.66
19,VLNERYSTLVVAPTRNASGL,inactive
20,VLPEWSLF,inactive
21,VLPRGD,0.125 ± 0.4
22,VLPRYN,0.471 ± 0.62
23,VLQDMYYKSVKKLQARSKDF,inactive
24,VLQRCRTAVKPYQHNNCLIM,2.26 ± 0.11
25,VLSEYGDTNYKIQGRATCGK,0.928 ± 0.6

row,Substance,amyloid nucleation score
1,VLSNSEYVFTNR,-0.5 ± 0.28
2,VLSRFLASKRNCPVPDSLG,0.093 ± 0.29
3,VLTNKLQVTVCLLC,8.448 ± 0.046
4,VMALSIMTMGTSVGFRDNGG,4.38 ± 0.071
5,VMCEEGLALRRCTGWLMFTG,1.11 ± 0.28
6,VMIMVEVNPWGRCGRRRERS,9.613 ± 0.052
7,VMIVFLDAFFGNLRANVVWY,-0.846 ± 0.49
8,VMLNWKMVYRTRDFNLQSYD,1.85 ± 0.15
9,VMMIQTVQFRLTSKSSGMSR,5.259 ± 0.043
10,VMRNKILF,-0.341 ± 0.79
11,VMRVT,5.22 ± 0.081
12,VMSFTASA,0.607 ± 0.51
13,VMVFVCVAYEYEFSPIRGPE,inactive
14,VMWKEFLPGILCGCCKLGFS,-0.481 ± 0.33
15,VMWRTRGTACSLIVRWVGMG,0.822 ± 0.25
16,VNAVSKGTCLLIWFRDFVAY,-0.113 ± 1.1
17,VNCCDFVVC,-0.063 ± 0.49
18,VNFFNLINRRGTPNRWFYAS,0.201 ± 1
19,VNKILQEYMACRRNLQTQMW,-0.215 ± 0.3
20,VNLFVLDSRTNGVCFWELMT,-0.452 ± 0.55
21,VNLGSGAVEPTTLRKFGLTR,4.28 ± 0.06
22,VNLITGIMYI,inactive
23,VNLSCPVMNRTSMMCVVYLH,7.799 ± 0.052
24,VNLSDDCELVYRSCEVLLNY,-1.34 ± 1.1
25,VNLVYSYFNISGWIEFSSLC,2.98 ± 0.053

row,Substance,amyloid nucleation score
1,VNMFSFHYFHSVMRFLFYRW,-0.751 ± 0.41
2,VNNNLLNASLAMVSM,inactive
3,VNSEISDYLHDGDGSRVRSI,-0.025 ± 0.79
4,VNSFIDDSCLGMANPLPYWS,-1.03 ± 1
5,VNSSFLLGFCLRIMNHV,inactive
6,VNSVMARMITCTSVVGCKYW,-0.259 ± 0.19
7,VNVPYIRMIDHLLTYTQL,-0.081 ± 1.1
8,VNWLFACVELR,0.365 ± 0.36
9,VNYFVRGTVSK,0.074 ± 0.74
10,VPFGNESWLYTR,-1.06 ± 0.64
11,VPFYVFSVIGMIYMHGWVEW,-0.748 ± 0.56
12,VPISHLNCYFFW,8.686 ± 0.084
13,VPLHDARTRM,0.637 ± 0.24
14,VPQLSLQLVQRIFGFPSVIL,-0.288 ± 0.41
15,VPRLILSIYFIICLTTQEAV,-0.24 ± 0.65
16,VPSRGLF,0.815 ± 0.4
17,VPSRS,0.172 ± 0.65
18,VPSSNFVWVFLRLKS,-0.996 ± 0.49
19,VPYGRAGFVTTYAVCCYNCK,-0.47 ± 1.1
20,VPYSICSKSSRESCRYVWYG,3.79 ± 0.053
21,VQICLGNPNWGNPANRSFVV,1.95 ± 0.2
22,VQLWYILITKMVR,-1.02 ± 1
23,VQYLVDCMYWVQGMAVSE,0.475 ± 0.46
24,VRARYASLCHGIAAEGIVGV,0.506 ± 0.28
25,VRGSNV,-0.637 ± 0.33

row,Substance,amyloid nucleation score
1,VRKSFLCCKQMGLLF,-1.14 ± 0.64
2,VRLFTVGWRSGKNVGNTSDA,-0.263 ± 1.1
3,VRLLLYWVAVRWRETDCCCS,0.315 ± 0.48
4,VRMMCLQGATTGATNSPSNR,-0.526 ± 0.37
5,VRNGWCTSWNSTAN,0.974 ± 0.52
6,VRPCRP,1.49 ± 0.55
7,VRRCIVRI,0.267 ± 0.4
8,VRSLKTHRFPFLCERSKFMG,-0.987 ± 0.38
9,VRWIKVFHFP,-0.784 ± 0.76
10,VSAKNIMSSAAER,0.451 ± 0.35
11,VSCLTAPILSMENPSEEYVG,1.55 ± 0.35
12,VSDLKVAQNCANKVIKLRYR,5.01 ± 0.072
13,VSDLRRMKDGC,inactive
14,VSFRHQCWNACNSDSVGEEI,0.892 ± 0.48
15,VSIRDVVGQYSINRVICRSY,-0.774 ± 0.54
16,VSITISTTCSNKGS,1.29 ± 0.22
17,VSLLCIFVAYGNWVMNGDDP,-0.136 ± 0.62
18,VSLMFSGVIWAIWLMLFGVG,1.13 ± 0.61
19,VSLWLYISMQCTRLSRRDQG,0.22 ± 0.65
20,VSMSRGL,inactive
21,VSPLALDQVTVSMVAMGIEG,0.999 ± 0.29
22,VSRSSKMMFFVDHLRYC,1.55 ± 0.58
23,VSSVRCNRVAYNPASGRGRR,-0.124 ± 0.55
24,VSSWGMYYWFS,0.06 ± 0.44
25,VSVLI,0.45 ± 0.44

row,Substance,amyloid nucleation score
1,VSYFPYRDVLGTINNV,0.729 ± 0.54
2,VTDWACGMILIYVLRKILVM,0.461 ± 0.47
3,VTGNKEVMKIRCWVAHEESY,0.436 ± 0.49
4,VTGYGSLYYGVKTRG,-0.295 ± 0.55
5,VTIEFATHLWGVMY,4.78 ± 0.072
6,VTTSTLMYWRGRTGALLAPS,1.84 ± 0.22
7,VVCLPVISLCWIFLHIIF,inactive
8,VVDCMCSGLHWVQVGILSQP,1.19 ± 0.39
9,VVEICFYW,6.258 ± 0.034
10,VVFFNGACALATLAAVSLGP,6 ± 0.062
11,VVGPFHFIVMMKVSKVRVKL,6.212 ± 0.039
12,VVIFCVVFWV,0.129 ± 0.76
13,VVLTHY,0.386 ± 0.34
14,VVMLVRT,3.87 ± 0.064
15,VVNLIVKDDPWEGWLKSLVW,2.46 ± 0.18
16,VVRLSSYNASTPLSVSFRRG,-0.171 ± 0.74
17,VVRVCRQGCLSNLSWCGWGE,-0.1 ± 1
18,VVSKDDRDGNV,3.14 ± 0.044
19,VVSYFCCLDCSLNAYS,9.384 ± 0.043
20,VVTNCAALVNWRFFYLCNSY,3.93 ± 0.054
21,VVVSVCSPLK,0.258 ± 0.46
22,VVYFFFCLDMVMTGF,4.65 ± 0.087
23,VWIGAAGGDFDSCRG,1.29 ± 0.43
24,VWQVGQQRY,0.899 ± 0.17
25,VWSNLSVRLRHI,-0.196 ± 1

row,Substance,amyloid nucleation score
1,VWSSMSFTSLFVIISLSNYS,2.88 ± 0.13
2,VWTCIVFSR,6.22 ± 0.074
3,VWTIPRS,0.012 ± 0.5
4,VWVVCEFLAVVPKTKIFRTD,0.721 ± 0.66
5,VWWGSMHAVC,0.652 ± 0.31
6,VYAFLYFWGFRHGVVYV,-0.099 ± 0.44
7,VYCHRLNIILIGRVFCSEDI,0.062 ± 0.55
8,VYCLSVMSARSQFCVWGWML,0.165 ± 1
9,VYENKIA,0.313 ± 0.47
10,VYIFQGMR,-0.302 ± 0.46
11,VYIWSCCVKSFESSTFDDDN,7.972 ± 0.074
12,VYLKIAGTVIDRFTAHVLLM,-1.43 ± 0.75
13,VYLVKAGLYSRMNQLLPLCS,0.607 ± 0.34
14,VYMKFMGMMQHFIKLKSRDL,inactive
15,VYRFSAAARLDWIDRVNLCN,0.868 ± 0.58
16,VYRLTRVISEWRSILVLVWT,0.328 ± 0.42
17,VYSLFSYLRDTLVV,-0.534 ± 0.74
18,VYTHSGIVY,-0.82 ± 0.62
19,VYTSYGSRSFTFNRFNAWTD,-0.97 ± 0.78
20,VYWWVANV,1.99 ± 0.26
21,VYYWHEYFIDWY,-1.27 ± 1.1
22,WAATITDRYRCL,0.35 ± 0.35
23,WAEPYFRCDGSSRIFSQGNA,inactive
24,WALLGFLDYKLFLTAEVFSA,-0.498 ± 1.1
25,WAQSNISETSYHVGSLLSVA,0.016 ± 0.32

row,Substance,amyloid nucleation score
1,WAWIHSADLNYNCVMRGCLP,2.16 ± 0.14
2,WCGLISASYTLIHSNRFMKL,-1.04 ± 1.1
3,WCVMLGLGSQGSRILRVLRM,0.29 ± 0.29
4,WDIRVVVSVRCNMQVYLFVC,0.581 ± 0.51
5,WDSFLRLDFSMLSVLRREPR,2.98 ± 0.18
6,WDSSPGISVVSIRLEQ,5.431 ± 0.036
7,WDSVRSWKPFPHTSNKWFIL,-0.679 ± 0.48
8,WDVKRIRKVSFDFVSRGWKG,-0.293 ± 0.32
9,WEDGTFEV,-0.219 ± 0.61
10,WEGLSGTSLVLSQCFAPFSS,2.17 ± 0.12
11,WESCWIHLFHLSIHLTTNFY,2.08 ± 0.088
12,WESLVETSSTLFLRECYNVF,-1.86 ± 0.53
13,WFACSLVAYRVLSSGTKAVM,0.204 ± 0.34
14,WFFTSS,-0.526 ± 0.76
15,WFLCWYSTPTLGCCKKEGSA,0.056 ± 0.33
16,WFMFDFFYF,inactive
17,WFTAVVLNS,0.333 ± 0.25
18,WFVGFSMAYWNERDAGRPGM,1.8 ± 0.15
19,WFVTNGCFYSLCLTHG,5.996 ± 0.028
20,WGCHRLEATVLLCVRVCIDC,-0.263 ± 1.1
21,WGESHWVASFFKFVRGSWDG,-0.112 ± 0.54
22,WGHANFAEVWNDP,0.385 ± 0.6
23,WGHRVDCIFKSNLSA,-0.878 ± 0.31
24,WGNHSYLTVYRFFIRNWDVI,-0.81 ± 0.55
25,WHNDSTG,0.619 ± 0.22
